Data taken from patent US20140193357A1.
Where “and” joins values, the source holds several entries; their conditions need not be identical. Identical values can stand only once.

Target: T1, G-CSF receptor on the surface of murine myeloid leukemia cell line G-NFS-60 (murine (cell line G-NFS-60)) (UniProt P40223)
T1 sequence (looked up): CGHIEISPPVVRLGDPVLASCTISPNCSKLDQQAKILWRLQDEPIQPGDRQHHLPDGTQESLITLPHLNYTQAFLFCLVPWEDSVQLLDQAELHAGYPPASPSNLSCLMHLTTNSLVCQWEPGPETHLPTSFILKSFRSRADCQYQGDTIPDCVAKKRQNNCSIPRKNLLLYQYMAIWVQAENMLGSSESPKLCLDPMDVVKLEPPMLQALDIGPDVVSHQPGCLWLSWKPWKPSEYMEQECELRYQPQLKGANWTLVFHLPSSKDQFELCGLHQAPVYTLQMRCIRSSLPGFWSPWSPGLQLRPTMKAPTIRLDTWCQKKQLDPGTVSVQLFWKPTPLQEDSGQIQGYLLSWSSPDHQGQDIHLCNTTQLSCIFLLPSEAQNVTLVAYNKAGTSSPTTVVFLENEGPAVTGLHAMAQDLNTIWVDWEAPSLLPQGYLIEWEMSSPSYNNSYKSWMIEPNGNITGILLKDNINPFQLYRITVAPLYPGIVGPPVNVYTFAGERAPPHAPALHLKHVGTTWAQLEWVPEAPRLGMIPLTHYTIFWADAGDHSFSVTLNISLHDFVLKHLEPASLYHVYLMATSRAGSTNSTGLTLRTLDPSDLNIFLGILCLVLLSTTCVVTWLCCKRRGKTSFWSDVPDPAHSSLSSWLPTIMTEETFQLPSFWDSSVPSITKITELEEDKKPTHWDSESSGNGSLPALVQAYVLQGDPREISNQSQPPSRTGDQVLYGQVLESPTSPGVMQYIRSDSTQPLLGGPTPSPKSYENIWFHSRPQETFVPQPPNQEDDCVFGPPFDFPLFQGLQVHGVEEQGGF
Test: cell-based or functional assay

Biologic activity (proliferation of G-NFS-60 cells, MTS dye): 1e+08 IU/mg and 6e+07 IU/ml
Substance: Monomer G-CSF (from UniProt P09919 31-204) (ligand)
